Data on 76 variants can be found in the RNAGym collection of RNA variant scans (doi:10.7554/elife.80360).

B1: Hairpin Ribozyme (parent)
chain: GUCCUCUUUCACGUGCGCGUGAAAGAGAGAAGUGAACCAGAGAAACACACGUUGUGGUAUAUUACCUGGUA

Variants of B1 are the subject of this series. Description: self-cleavage, relative activity (ratio to wild type); higher = more cleavage; co-transcriptional.
GUCCUCUUUCACGUGCGCGUGAAAGAGAGAAGUGAACCAAAGAAACACACGUUGUCGUAUAUUACCUGGUA: the self-cleavage was 0.146. With GUCCUCUCUCACGUGCGCGUGACAGAGAGAAGUGAACCAGAGAAACACACGUUGUGGUAUAUUACCUGGUA, the self-cleavage turned out to be 0.68. As for GUCCUCUUUCACGUGCGCGUGAAAGAGAGGACUGAACCAGAGAAACACACGUUGUGGUAUAUUACCUGGUA, the figure is 0.106; as for GUCCUCUUUCACGUGCGCGUGAAAGAGAGAAGUGAACCAGAGAAACACACGUAGUGGUAUAAUACCUGGUA, 0.266; as for GUCCUCUUUCACGUGCGCGUGAAAGAGAGAAGUGAACCAGAGAAACACACGUUGUGGUAUAUAUCCUGGUA, 0.198. As for GUCCUAUUUCACGUGCGGGUGAAAGAGAGAAGUGAACCAGAGAAACACACGUUGUGGUAUAUUACCUGGUA, the self-cleavage is 0.43. Turning to GUCCUCUUUCACGUGCGCGCGAAAGAGAGAAGUGCACCAGAGAAACACACGUUGUGGUAUAUUACCUGGUA, the self-cleavage was 0.785. As for GUCCUCUUUCUCGUGCGCGUGAAAGAGAGAAGUGAACCAGAGAAACACGCGUUGUGGUAUAUUACCUGGUA, the figure is 0.558; as for GUCCUCUUUCACGGGCGCGUGAAAGAGAGAAGUGAACCAGAGAAACACACGUUGUAGUAUAUUACCUGGUA, 0.103. For GUCCUCUUUCACGUGCGCGUGAAAGAGAGAAGUGAACUAGCGAAACACACGUUGUGGUAUAUUACCUGGUA the value was 0.619; for GUCCUCUUUCACGUGCGUGUGAAAGAGAGAAGUGAACCAGAGGAACACACGUUGUGGUAUAUUACCUGGUA, 0.103; for GUCCUCUUUCACGUGCGCAUGAAAGAUAGAAGUGAACCAGAGAAACACACGUUGUGGUAUAUUACCUGGUA, 0.237.

As for GUCCUCUUUCACGUGCGCGUGAAAGAGAGAAGUGAACCACAGAAACACACGUUGUGGCAUAUUACCUGGUA, the self-cleavage was found to be 0.0707. Take GUCCUCUUUCACGUGCCCGUGGAAGAGAGAAGUGAACCAGAGAAACACACGUUGUGGUAUAUUACCUGGUA: the self-cleavage was 0.552. For GUCCUCUUCCACGUGCGCGUGAAAGAGAGAAGUGAACCAGAGAAACACACGUUGUGGUAUAUUACCUGUUA the value was 0.256. As for GUCCUCCUUCACGUGCGCGUGAAAGAGAGAAGUGAACCAUAGAAACACACGUUGUGGUAUAUUACCUGGUA, the figure is 0.163; as for GUCCUCUUUCACGUGCGAGUGAAAGAGAGAAGUGAACCGGAGAAACACACGUUGUGGUAUAUUACCUGGUA, 0.395.

For the variant GACCUCUUUCACGUGCGCGUGAAAGAGAGAAGUGAACCAGAGAAUCACACGUUGUGGUAUAUUACCUGGUA, the self-cleavage amounted to 0.0686. For GUCCUCUUUCACGUGCGCGUGAAAGACAGAAGUGAACCAGAGAAACACACGUUGUGGUAUAUUACCUGCUA the value was 0.1; for GUCCUCUUUCACGUGCGCGUGAAAGAGAGAAGUGAACCAGAUAAACACACGUUGUGGGAUAUUACCUGGUA, 0.192; for GUCCUCUUUUACGUGCGCGUGAGAGAGAGAAGUGAACCAGAGAAACACACGUUGUGGUAUAUUACCUGGUA, 0.551. For GUCCUCUUUCACGUGCGCGUGAAAGAGAGAAGUGAACCAGAGAAACCCACGUUGUCGUAUAUUACCUGGUA the value was 0.161; for GUCCUCUUUCACGUGCGCGUGAAAGAGAGAAGUGAACCAGAGAAACACACGGUGUGGUAUAUUACCUGGUC, 1.32; for GUCCUCUUUCACGUGCGCGUGAAAGAAAGAAGUGAACCAGAGAAACACACGUUGUGGUAUAUUACGUGGUA, 0.133. As for GUCCUCUUGCACGUGCGCGUGAAAGAGAGAAGUGAACCAGAGAAACACACGUUGUGGUAUAUUUCCUGGUA, the figure is 0.164; as for GUCCUCUUUCACGUGCGCGUGAAAGACAGAAGUGAACCAGAGAAACACACGUUGUGGUAUAUUACCUGGUA, 0.172. For GUCCUCUUUCACGUGGGCGUGAAAGAGAGAAGUGAACCAGAGAAACACACGUUGUGGUAUACUACCUGGUA, the self-cleavage is 0.213. As for GUCCUCUUUCACGUGCGCGUGAGAGCGAGAAGUGAACCAGAGAAACACACGUUGUGGUAUAUUACCUGGUA, the figure is 0.524; as for GUCCUCUUUCACGUGCGUGUGAAAGAGAGAAGUGAACCAGAGAAAGACACGUUGUGGUAUAUUACCUGGUA, 0.145.

As to GUCCUCUUUCACGUGCGCGUGAAAGAGAGAAGUGAACCAGAGCAACACACUUUGUGGUAUAUUACCUGGUA, the self-cleavage was 0.0904. As for GUCCUCUUUCACGUGCGCGUGAAAGAGAGAAGUGAGCCAGAGAAACACACGUUGUGGCAUAUUACCUGGUA, the figure is 1. For GUCCGCUUUCACGUGCGCGUGAAAGAGAGAAGUGAACCAGAGAAACACACGUUGUGGUAUAUUACCUGAUA the value was 0.0952. For GUCCUCUUUCACGUGCGCGUGAAAGUGAGAAGUCAACCAGAGAAACACACGUUGUGGUAUAUUACCUGGUA the value was 1.51; for GUCCUGUUUCACGUGCGCGUGAAAGAGAGAAGUGAACCAGAGAAACACACGUUUUGGUAUAUUACCUGGUA, 0.267. With GUCCUCUUUGACGUGCGCGUGAAAGAGAGAAGUGACCCAGAGAAACACACGUUGUGGUAUAUUACCUGGUA, the self-cleavage worked out at 0.498. For GUCCUCUUUCACGUGCGCGUGAAAGAGAGCAGUGAACCAGAGAAACACACGUUGGGGUAUAUUACCUGGUA the value was 0.0965; for GUCCUCUUUCACGUGCGCGUGAAAGAGAGAAGUGAACCAGAGAAACACACGUUGUGGUAUACUACCUGGCA, 0.255; for GUCCUCUUUCGCGUGCGCGUGAAAGAGAGAAGUGAACCAAAGAAACACACGUUGUGGUAUAUUACCUGGUA, 0.291. For the variant GUCCUCUUUCACGUGCGCGUGAAAGAGAGAAGUGAACCAGCGAAACACAUGUUGUGGUAUAUUACCUGGUA, the self-cleavage is 0.713. As for GUCCUCUUUCAGGUGCGCGUGAAAGAGCGAAGUGAACCAGAGAAACACACGUUGUGGUAUAUUACCUGGUA, the figure is 0.561. For GUCCUCUUUCACGUGCGCGUGAAAGAGAGAAGUGAACCGGAGAAACACACGUUGUGGUAUAUUACCUGGUU the value was 0.176; for GUCCUCUUUCACGUGCGCGUGAAAGAGAGAAGUGAACCUGAGAAGCACACGUUGUGGUAUAUUACCUGGUA, 0.252. As for GUCCUCUUUCACGUUCGCGUGAAAGAGAGAAGUGAACCAGAGAGACACACGUUGUGGUAUAUUACCUGGUA, the figure is 0.0895; as for GUCCUCUUUCAUGUGCGCGUGAAAGAGAGAAGUGAACAAGAGAAACACACGUUGUGGUAUAUUACCUGGUA, 0.143; as for GUCCCCUUUCACAUGCGCGUGAAAGAGAGAAGUGAACCAGAGAAACACACGUUGUGGUAUAUUACCUGGUA, 0.591. In the case of GUCCUCUUUCACGUGCGCGUGAAAGAGAGAAGUGAACCAGAGAAACACACGUUGUGGUAUAGUACUUGGUA, the self-cleavage was 0.12.

As to GUCAUCUUUCACGUGCGCGUGAAAGAGAGAAGUGAACCAGAGAAACACACGUUUUGGUAUAUUACCUGGUA, the self-cleavage turned out to be 0.118. For the variant GUCCCCUUUCACGUGCGCGUGAAAGAGAGAAGUGAACCAGAGAGACACACGUUGUGGUAUAUUACCUGGUA, the self-cleavage amounted to 0.147. As for GUCCUCUUUCACGUGCGCGAGAAAGAGAGCAGUGAACCAGAGAAACACACGUUGUGGUAUAUUACCUGGUA, the figure is 0.253; as for GUGCUCUUUCACGUGCGCGUGAAAGAGAGAAGUGAAACAGAGAAACACACGUUGUGGUAUAUUACCUGGUA, 0.162. For GUCCUCUUUCACGUGCGCGUGAAAGAGAGAAGUGAACCAGAGAAACACAUGUUGUGCUAUAUUACCUGGUA the value was 0.16; for GUCCUCUUUCACGUGCGCGUGAAAGAGCGAAGUGAACCAGAGAAACACACGUUGUGGUAGAUUACCUGGUA, 0.383. As for GUCCUCUUUCACGUGCGCGUGAAAGAGAGAAGCGAACCCGAGAAACACACGUUGUGGUAUAUUACCUGGUA, the figure is 0.171; as for GUCCUCUUUCACGUGCGCGUGAAAGAGAGAAGUGAACCAGAGAAAUACACGUUGUGGUCUAUUACCUGGUA, 0.32. In the case of GUCCUCUUUCACGUGCGCGUGAAAGAGAGAAGUCAACCAGAGAAUCACACGUUGUGGUAUAUUACCUGGUA, the self-cleavage is 0.33. For GUCCUCUUUCACGUGCGCGUGAAAGAGAGAAGUGAACCAGAGAAACACACGUUGAUGUAUAUUACCUGGUA the value was 0.148; for GUCCUCUUUCACGUGCGCGUGAAAGAGAGAAGUGAGCCAGAAAAACACACGUUGUGGUAUAUUACCUGGUA, 0.23; for GUCCUCUUUCACGUGCGCGUGAAAGAGAGAAGAGAACCAGAGCAACACACGUUGUGGUAUAUUACCUGGUA, 0.219.

Regarding GUCCUCUUUCACAUGCGCGUGAAAGAGAGAAGUGAACCAGAGAAACACACGUUGUGGUAUAUUACCUGAUA, the self-cleavage was found to be 0.368. Turning to GUCCUCUUUCACGUGCGCGUGAAAGAGAGAAGUGAACCAGAGAAACCCACAUUGUGGUAUAUUACCUGGUA, the self-cleavage came out at 0.303. With GUCCUCUUUCACUUGCGCGUGAAAGAGAGAAGUGAGCCAGAGAAACACACGUUGUGGUAUAUUACCUGGUA, the self-cleavage turned out to be 0.65. As for GUCCUCUUUCACGUGCGCGUGAAAGAGAGAAGUGUACCAGAGAAACAUACGUUGUGGUAUAUUACCUGGUA, the figure is 0.162; as for GGCCUCUUUCACGUGCGCGUGAAAGAGAGAAGUGAACCAGAGAAACACACGUUGUGGUAUAUUACCGGGUA, 0.194. As for GUCCUCUUUCACGUGCGCGUGAAAGAGAGAAGUGAACCAGAGAAACACACGUUGUGGAAUAUUACCUGAUA, the figure is 0.201; as for GUUCUCUUUCACGUGCGCGUUAAAGAGAGAAGUGAACCAGAGAAACACACGUUGUGGUAUAUUACCUGGUA, 0.472; as for GUCCUCUUUCACGUGCGCGUGAAAGAAGGAAGUGAACCAGAGAAACACACGUUGUGGUAUAUUACCUGGUA, 0.36. For GUCCUCUUUCACGUGCGCGCGAAAGAGAGAAGUGAACCAGAGAAACACACGUUGUGGUAUAUUAGCUGGUA the value was 0.472. As to GUCCUCUUUCACGUGCGCGUGAAAGCGAGAAGUGAACCAGAGAAACACACGUUGUGGGAUAUUACCUGGUA, the self-cleavage came to 0.496. For GUCCUCUUUCGCGUGCGCGUGAAAGAGAGAGGUGAACCAGAGAAACACACGUUGUGGUAUAUUACCUGGUA the value was 0.728; for GUCCUCUUUCUCGUGGGCGUGAAAGAGAGAAGUGAACCAGAGAAACACACGUUGUGGUAUAUUACCUGGUA, 0.653. As for GUCCUCUUUCACGUGCGCGGGAAAGAGAGAAGUGAACCAGAGAAACACACGUUGUGGUACAUUACCUGGUA, the self-cleavage was found to be 0.815.

In the case of GUCCUCUUUCACGUGCGCGUGAAAGACAGAAGUGAUCCAGAGAAACACACGUUGUGGUAUAUUACCUGGUA, the self-cleavage was found to be 0.128. As for GUCCUCUUUCACGUGCGCGUGAAAGAGAGAAGUGGACCAGAGAAACACACGCUGUGGUAUAUUACCUGGUA, the figure is 1.29; as for GUCCUCUUUCACGUGCGCGUGAGAGAGAGAAGUGAACCAGAGAAACACACGUUGUGGUAUAUUACCGGGUA, 0.18. For GUCCUCUUUCACGUGCGCGUGAAAGACAGAAGUGAACCAGAGAAACACACGUUGUGGUAUAUUGCCUGGUA the value was 0.186. Turning to GUCCUCUUUAACGUGCGCGUGAAAGAGAGAAGUGAACCAGAGAAACACACGUUGUGUUAUAUUACCUGGUA, the self-cleavage was determined as 0.221.
